According to article PMC13086497, “Heat shock factor regulation of antimicrobial peptides expression suggests a conserved defense mechanism induced by febrile temperature in arthropods”:

T1: LvHSF1 (rLvHSF1-GST) (Litopenaeus vannamei, UniProt X2D760 1-632)
T1 sequence: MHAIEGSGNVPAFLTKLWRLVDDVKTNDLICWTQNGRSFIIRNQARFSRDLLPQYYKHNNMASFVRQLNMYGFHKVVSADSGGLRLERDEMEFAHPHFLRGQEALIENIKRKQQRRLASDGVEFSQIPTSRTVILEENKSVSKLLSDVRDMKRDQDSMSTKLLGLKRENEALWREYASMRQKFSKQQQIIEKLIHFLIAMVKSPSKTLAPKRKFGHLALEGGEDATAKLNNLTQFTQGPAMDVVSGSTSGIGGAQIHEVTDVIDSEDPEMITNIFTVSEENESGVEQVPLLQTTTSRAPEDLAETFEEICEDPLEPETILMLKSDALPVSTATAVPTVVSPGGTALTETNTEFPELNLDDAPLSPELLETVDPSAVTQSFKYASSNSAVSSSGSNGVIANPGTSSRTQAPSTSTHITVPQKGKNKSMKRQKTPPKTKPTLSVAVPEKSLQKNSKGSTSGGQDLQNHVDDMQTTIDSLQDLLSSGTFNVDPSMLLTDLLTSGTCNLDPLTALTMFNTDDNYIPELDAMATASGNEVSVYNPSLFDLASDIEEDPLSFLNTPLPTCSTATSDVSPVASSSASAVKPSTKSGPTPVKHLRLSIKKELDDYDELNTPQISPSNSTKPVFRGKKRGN


Molecular target: T1, LvHSF1 (rLvHSF1-GST)
Experiment: EMSA; EMSA: 10 ug recombinant protein, 20 fmol biotin probe, LightShift Chemiluminescent EMSA kit, 5% native PAGE; buffer, pH and temperature not stated
Conditions: blunt
[1] = chain copies: 3, label: biotin (labeled probe)

Binder | binding result [1] | binding result (chain copies: 3, label: biotin)
SWD-Probe1 (dsDNA) DNA 1: TACCACTAGGACTTTCTATAGAACCATCTTTGCTTCACTATAACA DNA 2: TGTTATAGTGAAGCAAAGATGGTTCTATAGAAAGTCCTAGTGGTA | binds | –
Mut-SWD-Probe1 (dsDNA) DNA 1: TACCACTAGGACTTTCCAAACGGCCAGGTTTGCTTCACTATAACA DNA 2: TGTTATAGTGAAGCAAACCTGGCCGTTTGGAAAGTCCTAGTGGTA | – | no binding
SWD-Probe2 (dsDNA) DNA 1: GTTGGGATTTCCATGATGACTTTTCGAGGAATTAGTGGCTGCGTG DNA 2: CACGCAGCCACTAATTCCTCGAAAAGTCATCATGGAAATCCCAAC | binds | –
